Assay results: patent publication US7517949B2, “Livin-derived peptides, compositions and uses thereof” (Hadasit Medical Research Services & Development Ltd., priority 2003, dated 2009)
“Also recorded” adds a separate entry of the source. Residues, ends and D or L forms follow the SMILES beside them. *: point of attachment. Cbz = O=C(OCc1ccccc1)*; CH2F = FC*

B1: Livin α: full-length Livin isoform α, IAP family member, about 39 kDa (protein, listed as Homo sapiens)
chain: MGPKDSAKCLHRGPQPSHWAAGDGPTQERCGPRSLGSPVLGLDTCRAWDHVDGQILGQLRPLTEEEEEEGAGATLSRGPAFPGMGSEELRLASFYDWPLTAEVPPELLAAAGFFHTGHQDKVRCFFCYGGLQSWKRGDDPWTEHAKWFPSCQFLLRSKGRDFVHSVQETHSQLLGSWDPWEEPEDAAPVAPSVPASGYPELPTPRREVQSESAQEPGGVSPAEAQRAWWVLEPPGARDVEAQLRRLQEERTCKVCLDRAVSIVFVPCGHLVCAECAPGLQLCPICRAPVRSRVRTFLS
B2: p30-Livin α: Livin α-derived peptide, cleavage product, C-terminal subunit of about 30 kDa with BIR and RING domains (protein, listed as Homo sapiens)
chain: GQILGQLRPLTEEEEEEGAGATLSRGPAFPGMGSEELRLASFYDWPLTAEVPPELLAAAGFFHTGHQDKVRCFFCYGGLQSWKRGDDPWTEHAKWFPSCQFLLRSKGRDFVHSVQETHSQLLGSWDPWEEPEDAAPVAPSVPASGYPELPTPRREVQSESAQEPGGVSPAEAQRAWWVLEPPGARDVEAQLRRLQEERTCKVCLDRAVSIVFVPCGHLVCAECAPGLQLCPICRAPVRSRVRTFLS
B3: Livin β: full-length Livin isoform β, IAP family member, about 37 kDa (protein, listed as Homo sapiens)
chain: MGPKDSAKCLHRGPQPSHWAAGDGPTQERCGPRSLGSPVLGLDTCRAWDHVDGQILGQLRPLTEEEEEEGAGATLSRGPAFPGMGSEELRLASFYDWPLTAEVPPELLAAAGFFHTGHQDKVRCFFCYGGLQSWKRGDDPWTEHAKWFPSCQFLLRSKGRDFVHSVQETHSQLLGSWDPWEEPEDAAPVAPSVPASGYPELPTPRREVQSESAQEPGARDVEAQLRRLQEERTCKVCLDRAVSIVFVPCGHLVCAECAPGLQLCPICRAPVRSRVRTFLS
B4: p28-Livin β: Livin β-derived peptide, cleavage product, C-terminal subunit of about 28 kDa with BIR and RING domains (protein, listed as Homo sapiens)
chain: GQILGQLRPLTEEEEEEGAGATLSRGPAFPGMGSEELRLASFYDWPLTAEVPPELLAAAGFFHTGHQDKVRCFFCYGGLQSWKRGDDPWTEHAKWFPSCQFLLRSKGRDFVHSVQETHSQLLGSWDPWEEPEDAAPVAPSVPASGYPELPTPRREVQSESAQEPGARDVEAQLRRLQEERTCKVCLDRAVSIVFVPCGHLVCAECAPGLQLCPICRAPVRSRVRTFLS

What was measured:
[1] = system: Livin cleavage in Jurkat cells; assay: Livin cleavage in Jurkat cells pre-incubated with caspase inhibitors (Western blot); type: cell-based, human; details: Jurkat cells pre-incubated with inhibitor prior to treatment
Experimental: FIG. […]
Whole cell lysates were prepared using lysis buffer (Tris-HCl 20 mM, EDTA 2 mM, β-2-Mercaptoethanol 6 mM, NP-40 1%, SDS 0.1%). Protease inhibitors included: PMSF 1 mM, Protease inhibitor cocktail (Sigma) diluted 1:10, and Complete inhibitor cocktail (Roche, Germany) diluted 1:25. About 0.25-1×10^6 cells were lysed in a total volume of 100 μl, incubated at 4° C. for 20 minutes with vigorous vortexing. Protein content was assessed by Bradford assay (Bio-Rad, Germany), according to the manufacturer's instructions. Samples were resolved on a 10% Bis-Tris pre-cast gel, following the manufacturer's instructions (Invitrogen, USA). After transferring the gel to a PVDF membrane (Millipore, Mass. USA), the membrane was exposed to the antibodies in blocking solution (PBS 1% Casein, 0.05% Tween 20) for 1 hour, followed by three 5-minute washes with PBS. The monoclonal antibody against Livin (clone:88C570) was purchased from Imgenex, and diluted 1:3000 in blocking solution. Survivin 6E4 monoclonal antibody was used according to the manufacturer's recommendation. […]
Cells were incubated with caspase inhibitors for 1-2 hour prior to treatment with the apoptotic stimuli. […] Caspase 9 activity was assessed using caspase-9 colorimetric substrate LEHD-pNA (Biovision, Calif., USA). […]

[2] = system: Jurkat cells; assay: Protection of Livin-expressing cells from drug-induced apoptosis; type: cell-based, human
Experimental: Primary cultures of melanoma cells were tested for the expression of Livin, XIAP and Survivin. XIAP and Survivin were widely expressed in most of the melanoma samples tested. On the other hand, Livin was expressed at variable levels, in 10 out of the 27 melanoma samples.
To further explore the cleavage of each isoform, retroviral infection to establish a Jurkat T-cell Leukemia/Lymphoma cell line and an EBV-transformed B cell line 721.221, expressing high, stable levels of either Livin α or β were used. […] A panel of the three drugs etoposide, staurosporine, and anti-CD95/Fas ligand was thus used to induce apoptosis in the transfected Jurkat and 721.221 cells. Similar results were observed when cells were treated with anti-CD95/Fas antibody (data not shown). The correlation between the timing of the cleavage and apoptosis rate was further investigated.

[3] = system: 721.221 cells; assay: Apoptosis of stably transfected 721.221 cells after anti-CD95/Fas treatment (nuclear morphology, acridine orange); type: cell-based; details: 0.1 μg/ml anti-CD95/Fas antibody, 18 hours, compared with wild type 721.221 cells
Experimental: FIG. 6a: 721.221 cells stably expressing either Livin α or […], and wild type 721.221 cells, were treated with 0.1 μg/ml anti-CD95/Fas antibody for 18 hours. Nuclear morphology was visualized using acridine orange staining and used for determining apoptosis rate.
(§1) Transfection with the pIRES2-EGFP plasmid (QIAGEN, Germany) encoding p30-Livin α or p28-Livin β, and as positive controls, the full length wild type cDNA of either Livin α or β was done either by electroporation, in 721.221 cells [Mandelboim, O. et al. (1996) J. Exp. Med., 184: 913-922], or using PolyFect (QIAGEN), in human embryonic kidney 293T cells, according to manufacturers instructions. […] Thus, cells transfected with this plasmid may be monitored for transfection by the absence or presence of the GFP signal.
(§2) Nuclear morphology was visualized using acridin orange (Sigma) staining as described [Loo, D. T. et al. (1998) Methods Cell Biol., 57: 251-264]. […] The percentage of apoptotic to viable cells was counted by fluorescence microscopy and 500 cells were scored for each sample. […] Cells transfected with a GFP-containing plasmid were analyzed using Annexin-V-Cy5 and PI staining according to the manufacturer instructions (MBL, Japan). In stably transfected cultures with a rate of GFP-positive cells higher than 95%, all cells were analyzed for apoptosis. […]

[4] = system: Jurkat cells; details: cited from earlier work
[5] = system: LB33 Mel A1 cells; assay: Cell death of transiently transfected LB33 Mel A1 cells (PI stain of GFP-positive cells); type: cell-based, human; details: data not shown; for induction of apoptosis by transient transfection: in comparison to full-length counterparts or control
Experimental: At the indicated times post transfection cells were analyzed for GFP percent as a marker of transfection, and the GFP-positive population was further analyzed for cell death using PI stain.

[6] = system: 293T cells; assay: Spontaneous apoptosis of transiently transfected 293T cells (Annexin V/PI flow cytometry of GFP-positive cells); type: cell-based, human; details: 24 hours post-transfection, in comparison to full-length proteins or empty vector
Experimental: FIG. 6c: 293T cells were transiently transfected with the indicated plasmids. 24 hours post-transfection, cells were harvested and analyzed by flow cytometry. Apoptosis of GFP-positive cells was analyzed by Annexin-V/PI stain.
as §1, §2

Molecule | cleavage of Livin [1] | rate of apoptosis following anti-CD95/Fas treatment [3] | induction of apoptosis by transient transfection [5] | rate of spontaneous apoptosis [6] | further results
CC[C@H](C)[C@H](NC(=O)[C@H](CCC(=O)O)NC(=O)[C@@H](NC(C)=O)C(C)C)C(=O)N[C@H](C=O)CC(=O)O [caspase 6 inhibitor] (Ac-VEID-aldehyde) | not | – | – | – | –
COC(=O)C[C@H](NC(=O)[C@H](C)NC(=O)[C@@H](NC(=O)OCc1ccccc1)C(C)C)C(=O)CF [zVAD-FMK] (Cbz-Val-Ala-Asp(OMe)-CH2F) | significantly diminished the cleavage of Livin | – | – | – | –
B1 | – | lower rate of apoptosis | – | – | protection from staurosporine-induced apoptosis [2]: can protect from staurosporine-induced apoptosis; protection against anti-CD95/Fas antibody-induced apoptosis ([4]; inventors' previous work (Ashhab 2001)): able to protect from apoptosis
B2 | – | gained significant pro-apoptotic activity; also recorded: much higher rate of apoptosis | sufficient to induce apoptosis | significantly higher rate of spontaneous apoptosis | –
B3 | – | – | – | – | protection against other chemotherapeutic agents ([2]; Jurkat cells, Daunorubicin, Fludarabine and Cytosine arabinoside, unpublished data): protect Jurkat cells; inhibition of etoposide-induced apoptosis ([4]; previously demonstrated by the inventors (Ashhab 2001)): inhibit etoposide-induced apoptosis; also recorded: can only block etoposide-induced apoptosis
B4 | – | – | sufficient to induce apoptosis | significantly higher rate of spontaneous apoptosis | rate of apoptosis, p28-Livin β relative to p30-Livin α ([5]; all time points tested): more potent pro-apoptotic agent than p30-Livin α; also recorded: much higher rate of apoptosis than p30-Livin α
